According to patent US20110206676A1 (UNIVERSITY OF CHICAGO, published 2011):

Biological target: T1, EsaC (Staphylococcus aureus, UniProt A0A0H2XIK2 1-130)
T1 construct: Predicted soluble 130 amino acid protein; also called EsaC polypeptide; purified EsaC
T1 sequence: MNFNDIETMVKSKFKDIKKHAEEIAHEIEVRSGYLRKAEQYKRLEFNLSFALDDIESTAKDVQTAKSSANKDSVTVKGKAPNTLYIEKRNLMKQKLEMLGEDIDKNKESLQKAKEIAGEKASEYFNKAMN
Test: purified proteins mixed; method not described

B1: EsaB (other)
chain: MNQHVKVTFDFTNYNYGTYDLAVPAYLPIKNLIALVLDSLDISIFDVNTQIKVMTKGQLLVENDRLIDYQIADGDILKLL
notes: 80 amino acid predicted soluble protein; also called purified EsaB
binding result: no binding
